In patent publication US20070269898A1, “Amino Acid Sequences Essential to Neuron Specific Gene Expression” (YOKOHAMA CITY UNIVERSITY, priority 2004, published 2007):
Where no end group is shown, it is not given here.

T1: mSin3B PAH1 domain (Mus musculus, UniProt Q62141)
T1 construct: Gly-Ser-His-Met (vector-derived N-terminal residues; general statement only, not tied to the sample used) (N); made in house
T1 sequence (Q62141 28-107): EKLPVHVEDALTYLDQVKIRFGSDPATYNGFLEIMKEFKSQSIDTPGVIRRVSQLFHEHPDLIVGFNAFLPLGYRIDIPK

T2: PAH1 domain of mSin3B (a.a. 28-107) (mouse, UniProt O75182 35-114 (human entry))
T2 construct: Expressed in E. coli from pET-28a (NdeI-BamHI) and the His-tag was cut off with thrombin; Used 15N-labeled (or 13C/15N-labeled) in NMR; Stated molecular weight 9585; also called mSin3B PAH1 domain; mSin3B PAH1
T2 sequence: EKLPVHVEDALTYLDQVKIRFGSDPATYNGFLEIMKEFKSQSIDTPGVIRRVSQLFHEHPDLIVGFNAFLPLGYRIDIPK

B1: NRSF/REST (a.a. 43-83) (peptide)
peptide: APQLIMLANVALTGEVNGSCCDYLVGEERQMAELMPVGDNN
notes: Recombinant, made as a GST fusion (pGEX-2T, BamHI-EcoRI) and GST was cut off with thrombin; Stated molecular weight 4511; also called NRSF/REST43-83
B2: NRSF/REST (a.a. 39-55) (peptide)
peptide: AELAAPQLIMLANVALT
notes: Synthetic peptide, molecular weight 1739; also called NRSF/REST39-55
B3: NRSF/REST (a.a. 38-57) (peptide)
peptide: KAELAAPQLIMLANVALTGE
notes: Synthetic peptide, molecular weight 2053; Used for NMR structure analysis of the complex; also called NRSF/REST38-57
B4: NRSF/REST (a.a. 42-56) to which KKKK and W are added to its C-terminus (peptide)
peptide: AAPQLIMLANVALTGKKKKW
notes: Synthetic peptide, molecular weight 2182; also called NRSF/REST42-56
B5: N-CoR (a.a. 1829-1847) (peptide)
peptide: RYNTAADALAALVDAAASA
notes: Synthetic peptide, molecular weight 1835; also called co-repressor N-CoR
B6: NRSF/REST (a.a. 64-80) (peptide)
peptide: DYLVGEERQMAELMPVG
notes: Synthetic peptide, molecular weight 1937
B7: NRSF/REST (a.a. 68-83) (peptide)
peptide: GEERQMAELMPVGDNN
notes: Synthetic peptide, molecular weight 1790

Key:
mSin3B PAH1 domain = biological target: T1, mSin3B PAH1 domain; test: 1H-15N HSQC interaction / titration experiment with 15N-labeled mSin3B PAH1 domain; format: binding; details: for Spectrum (1H-15N HSQC of 15N-mSin3B PAH1 after adding the peptide: complex or single peptide): peptide added to aqueous solution of 15N-labeled mSin3B PAH1
Method: Interaction candidate regions of NRSF/REST (a.a. 43-83, 39-55, 38-57, 64-80 and 68-83) were individually added to an aqueous solution of ^15N-labeled mSin3B PAH1 for measuring ^1H—^15N HSQC to thereby determine a region necessary for the interaction. In order to examine binding ratios, NRSF/REST (a.a. 42-56) at varied concentrations was added to ^15N-labeled mSin3B PAH1 domain in phosphate buffer (pH 6.6), followed by observation of signal changes by ^1H—^15N HSQC. […] Further, in order to carry out quantitative determination of concentrations with UV, a residue having an aromatic ring (W) was also added to the peptide. In a similar manner, the interaction between ^15N-labeled mSin3B PAH1 domain and N—CoR (a.a. 1829-1847) was observed by ^1H-^15N HSQC. For all of the NMR measurement, Bruker Advance 700 was used.
^1H—^15N HSQC spectra were measured when NRSF/REST (a.a. 42-56) was added to 0.1 mM ^15N-labeled mSin3B PAH1 domain at a molar ratio of 1:0, 1:0.5, 1:1 or 1:2. As the concentration of NRSF/REST increased, signals from the single peptide mSin3B disappeared and new signals derived from the mSin3B in complex began to appear. […] No difference was recognized between mSin3B PAH1:NRSF/REST ratios of 1:1 and 1:2. Therefore, it was shown that mSin3B PAH1 domain and NRSF/REST form a complex with 1:1.
^1H—^15N HSQC spectra were measured when N—CoR was added to 0.1 mM ^15N-labeled mSin3B PAH1 domain at a molar ratio of 1:0, 1:0.2, 1:0.4, 1:0.6, 1:0.8, 1:1, 1:2 or 1:3. The positions of signals shifted in a N—CoR concentration dependent manner.

Solubility of peptide = format: physicochemical; details: before adding KKKK to the C-terminus
[1] = biological target: T2, PAH1 domain of mSin3B (a.a. 28-107); test: 1H-15N HSQC NMR, peptide added to 15N-labeled mSin3B PAH1 domain
Method: (§1) Interaction candidate regions of NRSF/REST (a.a. 43-83, 39-55, 38-57, 64-80 and 68-83) were individually added to an aqueous solution of ¹⁵N-labeled mSin3B PAH1 for measuring ¹H—¹⁵N HSQC to thereby determine a region necessary for the interaction. In order to examine binding ratios, NRSF/REST (a.a. 42-56) at varied concentrations was added to ¹⁵N-labeled mSin3B PAH1 domain in phosphate buffer (pH 6.6), followed by observation of signal changes by ¹H—¹⁵N HSQC. Since NRSF/REST (a.a. 42-56) is sparingly soluble, basic residues (KKKK) were added to its C-terminus to improve the solubility. Further, in order to carry out quantitative determination of concentrations with UV, a residue having an aromatic ring (W) was also added to the peptide. […] For all of the NMR measurement, Bruker Advance 700 was used.

[2] = biological target: T2, PAH1 domain of mSin3B (a.a. 28-107); test: 1H-15N HSQC titration, 0.1 mM 15N-labeled mSin3B PAH1 at molar ratios 1:0 to 1:3
Method: as §1
¹H—¹⁵N HSQC spectra were measured when N—CoR was added to 0.1 mM ¹⁵N-labeled mSin3B PAH1 domain at a molar ratio of 1:0, 1:0.2, 1:0.4, 1:0.6, 1:0.8, 1:1, 1:2 or 1:3. The positions of signals shifted in a N—CoR concentration dependent manner. A rapid exchange process on the NMR timescale was shown.

Row | Molecule | Spectrum (1H-15N HSQC of 15N-mSin3B PAH1 after adding the peptide: complex or single peptide) (mSin3B PAH1 domain) | binding result [1] | further results
1 | DYLVGEERQMAELMPVG (listed as Homo sapiens) [NRSF/REST 64-80, synthetic peptide of NRSF/REST residues 64-80] | Single | – | –
2 | AELAAPQLIMLANVALT (listed as Homo sapiens) [NRSF/REST 39-55, synthetic peptide of NRSF/REST residues 39-55] | Complex | – | –
3 | KAELAAPQLIMLANVALTGE (listed as Homo sapiens) [NRSF/REST 38-57, synthetic peptide of NRSF/REST residues 38-57] | Complex | – | –
4 | APQLIMLANVALTGEVNGSCCDYLVGEERQMAELMPVGDNN (listed as Homo sapiens) [NRSF/REST 43-83, NRSF/REST residues 43-83, expressed as GST fusion in E. coli and cut with thrombin] | Complex | – | –
5 | N—CoR (a.a. 1829-1847): synthetic peptide of residues 1829-1847 of transcriptional co-repressor N—CoR (RYNTAADALAALVDAAASA; listed as Homo sapiens) | – | – | interaction with the PAH1 domain relative to NRSF/REST (mSin3B PAH1 domain; 1H-15N HSQC): interacts with the PAH1 domain, though more weakly than NRSF/REST; exchange process on the NMR timescale (mSin3B PAH1 domain; titration into 0.1 mM 15N-labeled mSin3B PAH1 domain, 1H-15N HSQC): rapid exchange process
6 | GEERQMAELMPVGDNN (listed as Homo sapiens) [NRSF/REST 68-83, synthetic peptide of NRSF/REST residues 68-83] | Single | – | –
7 | AAPQLIMLANVALTGKKKKW [NRSF/REST 42-56] | – | – | solubility (Solubility of peptide): sparingly soluble
8 | B1 | – | binds | –
9 | B2 | – | binds | –
10 | B3 | – | binds | –
11 | B4 | – | binds | –
12 | B5 | – | – | binding result [2]: binds
13 | B6 | – | no binding | –
14 | B7 | – | no binding | –
